Data: patent publication EP1758924B1 (Council of Scientific and Industrial Research, dated 2005)

Biological target: T1, Hsp16.3 (16 kDa alpha-crystallin like heat-shock protein of Mycobacterium tuberculosis), recombinant, 6 X His … (Mycobacterium tuberculosis)
T1 construct: also called M. tuberculosis Acr (Hsp16.3) protein
Test: reverse phage ELISA on coated Hsp16.3, anti-M13-HRP, A405

B1: phage clone displaying peptide sequence Seq ID 21 (Tyr-Pro-His-His-Phe-Lys-His-Arg-His-Ile-Pro-Ile), from the Ph.D.-12 library on bacteriophage M13 (peptide)
peptide: YPHHFKHRHIPI
notes: Tested as whole phage in the reverse phage ELISA; not shown: fused to an M13 coat protein (spacer Gly-Gly-Gly-Ser is named)
fold binding over BSA background: ~3 fold
